In series [1] the target is FBA6 protein expressed and purified from E. coli (Arabidopsis) (UniProt Q9SJQ9). Briefly: microscale thermophoresis (MST), FBA6 purified from E. coli.
For series [2], the target named is TIA1 protein (recombinant, purchased from Origene) (human) (UniProt P31483). The series is described as follows: MST self-assembly, labelled TIA1 titrated with non-labeled TIA1, without 2′,3′-cAMP.
Series [3] shares this target. Briefly: MST self-assembly, labelled TIA1 titrated with non-labeled TIA1, in the presence of 500 µM 2′,3′-cAMP.
Series [4] deals with the molecule itself. Briefly: MST self-assembly, labelled Rbp47b titrated with non-labeled Rbp47b, without 2′,3′-cAMP. The protocol: (§1) MST measurements were performed using a Monolith NT.115 instrument (NanoTemper, München, Germany). Capillaries were loaded into the instrument as sets of 13-16 point ligand titrations. […] Excitation was optimized by varying the LED power to yield emission intensities above 200 AU, corresponding to 10-50 nM labeled protein. Monolith power was set to 60%. Ligands [2′,3′-cAMP (Sigma A9376)] and [3′,5′-cAMP (Sigma A6885)] were dissolved in PBS. 0.5% Tween and premium coated capillaries were used to prevent sticking. […] MO Affinity Analysis software was used to analyze (Kd calculation) and visualize the data. Presented data are from 2-3 technical replicates.

Series [5] deals with the molecule itself. The series is described as follows: MST self-assembly, labelled Rbp47b titrated with non-labeled Rbp47b, in the presence of 50 µM 2′,3′-cAMP. How it is done: as §1

Results on three molecules are retold here after patent publication US20190361012A1 (published 2019).

Chain of FBA6 protein expressed and purified from E. coli (Arabidopsis) (Q9SJQ9 whole entry): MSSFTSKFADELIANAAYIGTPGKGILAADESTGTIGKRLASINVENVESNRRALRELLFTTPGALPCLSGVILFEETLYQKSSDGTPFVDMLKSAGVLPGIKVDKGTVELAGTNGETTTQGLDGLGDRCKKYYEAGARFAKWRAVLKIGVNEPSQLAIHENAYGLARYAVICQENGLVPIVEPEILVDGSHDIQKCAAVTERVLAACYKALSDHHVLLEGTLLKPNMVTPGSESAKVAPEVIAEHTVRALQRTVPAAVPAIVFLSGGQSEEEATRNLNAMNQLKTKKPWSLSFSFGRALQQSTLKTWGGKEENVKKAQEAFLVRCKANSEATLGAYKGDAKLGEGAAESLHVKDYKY

With L-Gly-L-Pro (peptide), the Kd in series [1] is 200 nM.

Turning to “TIA1 protein (recombinant, purchased from Origene) (from UniProt P31483 1-386)”, the Kd in series [2] was 36.3 nM; in series [3], 20.6 nM.

B1: His6-Rbp47b (other, Arabidopsis)
chain: HHHHHHMQTTNGSDSTLATSGATPPNQQTPPPPQQWQQQQQQQQQWMAAMQYPPAAAMMMMQQQQMLMYPHQYVPYNQGPYQQHHPQLHQYGSYQQHQHQQHKAIDRGSGDDVKTLWVGDLLHWMDETYLHSCFSHTGEVSSVKVIRNKLTSQSEGYGFVEFLSRAAAEEVLQNYSGSVMPNSDQPFRINWASFSTGEKRAVENGPDLSVFVGDLSPDVTDVLLHETFSDRYPSVKSAKVVIDSNTGRSKGYGFVRFGDENERSRALTEMNGAYCSNRQMRVGIATPKRAIANQQQHSSQAVILAGGHGSNGSMGYGSQSDGESTNATIFVGGIDPDVIDEDLRQPFSQFGEVVSVKIPVGKGCGFVQFADRKSAEDAIESLNGTVIGKNTVRLSWGRSPNKQWRGDSGQQWNGGYSRGHGYNNGGGYANHHDSNNYHGEN
modifications: the labelled partner carries RED-NHS (amine reactive) dye; the titrated partner is non-labeled
notes: Cloned as His6-Rbp47b-GFP in E. coli; The fraction that had spontaneously lost GFP (His6-Rbp47b) was used for MST; In the self-assembly assay labelled Rbp47b was titrated with non-labeled Rbp47b; also called Rb47b
With B1, the Kd in series [4] came out at 128 nM; in series [5], 8.9 nM.
